Measured values: publication PMC6820244
Read-outs that look alike come from different tables or passages of the source.

T1: WRNIP1 (short isoform) (Homo sapiens, UniProt Q96S55-2 1-640)
T1 sequence: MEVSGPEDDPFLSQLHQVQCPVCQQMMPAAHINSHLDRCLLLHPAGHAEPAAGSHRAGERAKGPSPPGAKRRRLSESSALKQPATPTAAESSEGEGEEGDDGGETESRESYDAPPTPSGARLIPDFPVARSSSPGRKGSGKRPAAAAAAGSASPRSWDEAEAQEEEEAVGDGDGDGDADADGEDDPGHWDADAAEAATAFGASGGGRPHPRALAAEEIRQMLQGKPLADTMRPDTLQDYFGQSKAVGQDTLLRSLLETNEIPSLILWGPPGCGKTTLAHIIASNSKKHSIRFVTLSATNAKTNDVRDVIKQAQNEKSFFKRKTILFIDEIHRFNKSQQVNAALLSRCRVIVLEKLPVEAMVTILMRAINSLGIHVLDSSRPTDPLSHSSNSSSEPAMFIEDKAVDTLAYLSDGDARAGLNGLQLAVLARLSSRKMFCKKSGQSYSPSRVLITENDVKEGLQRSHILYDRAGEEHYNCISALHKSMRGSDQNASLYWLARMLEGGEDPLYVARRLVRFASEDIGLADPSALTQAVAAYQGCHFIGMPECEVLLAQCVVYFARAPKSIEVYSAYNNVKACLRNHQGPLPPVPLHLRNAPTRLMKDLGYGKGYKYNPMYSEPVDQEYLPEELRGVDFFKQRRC

B1: ssDNA X01 (ssDNA)
DNA: GACGCTGCCGAATTCTACCAGTGCCTTGCTAGGACATCTTTGCCCACCTGCAGGTTCACCC
B2: nicked four-way junction (structured_DNA)
DNA 1: GACGCTGCCGAATTCTACCAGTGCCTTGCTAGGACATCTTTGCCCACCTGCAGGTTCACCC
DNA 2: TGGGTGAACCTGCAGGTGGGCAAAGATGTCCATCTGTTGTAATCGTCAAGCTTTATGCCGTT
DNA 3: CATGGAGCTGTCTAGAGGATCCGACTATCGA
DNA 4: GAACGGCATAAAGCTTGACGATTACAACAGAT
DNA 5: ATCGATAGTCGGATCCTCTAGACAGCTCCATGTAGCAAGGCACTGGTAGAATTCGGCAGCGT

How the values were obtained:
WRNIP1 (short isoform) [1] = molecular target: T1, WRNIP1 (short isoform); assay: EMSA
WRNIP1 (short isoform) [2] = molecular target: T1, WRNIP1 (short isoform); assay: EMSA; remark: listed apart in the source

Row | Binder | binding result (WRNIP1 (short isoform) [1]) | binding result (WRNIP1 (short isoform) [2])
1 | B1 | no binding | 
2 | B2 |  | binds
